Patent US7422862B2, “Methods for identifying modulators of apoptosis” (The Burnham Institute, priority 2001, dated 2008)

Experiments:
Bax = Bax (Homo sapiens, UniProt Q07812); assay: Suppression of apoptosis induced by Bax over-expression (Humanin mutants); assay type: cell-based; parameters: expressed in transfected cells; host or cells: HEK293T; settings: GFP-fusion polypeptides, 3:1 ratio of HN:Bax plasmid DNA
Description: Apoptosis assays were performed as follows. Both floating and adherent cells (after trypsinization) were collected 48 hr after transfection, fixed, and stained using 4′,6-diamidine-2′-phenylindole dihydrochloride (DAPI) for assessing apoptosis based on nuclear fragmentation and chromatin condensation (Fields and Song, supra (1989)).
In order to explore whether a correlation exists between Humanin binding to Bax and Humanin-mediated suppression of apoptosis, Bax was co-expressed with various GFP-fusion polypeptides encoding wild-type, full-length Humanin or various truncation and site-specific mutants of Humanin (Table 1). Expression of all GFP-fusion polypeptides was confirmed by immunoblotting, and ability to bind Bax was determined by co-immunoprecipitation assay. Each Humanin mutant was scored for ability to suppress apoptosis induced by Bax over-expression by >50% using a 3:1 ratio of HN:Bax plasmid DNA. […] Based on these studies, an active region of the 24 amino-acid Humanin peptide, mapped to residues 7-17.
Cell culture and transfections were performed as follows. CSM14.1, HCT116, Cos-7, and SF268 cells were cultured in DMEM high glucose media (Irvine Scientific, Santa Ana, Calif.) containing 10% fetal bovine serum (FBS). PC-3 cells were cultured with RPMI 1640 media containing 10% FBS. Transfection of cells was performed using SuperFect (Qiagen, Chatsworth, Calif.) or LipofectaminePLUS reagent ([…]).

endogenous Bax protein = assay: Subcellular fractionation and immunoblot of endogenous Bax after STS; assay type: cell-based; settings: Cos7 cells, untagged peptides, STS
Description: (A-B) Humanin peptide prevents STS-induced Bax translocation in vivo. Cos-7 cells were first transfected with GFP-Bax plasmids. After 24 hrs, untagged wild-type or C8P mutant Humanin peptides were introduced into cells using ChariotTM reagent, and 2 h later cells were treated with 1 μM STS. After 4 h, the percentage of cells with translocated Bax was determined (mean±SD; n=3) by confocal microscopy (A) and representative photomicrographs (B). (C) Wild-type or C8P mutant Humanin peptides were introduced into Cos7 cells using ChariotTM reagent. Cytosolic (C) and mitochondria-containing (M) fractions were isolated by differential centrifugation 23 and analyzed by immunoblotting using anti-Bax (top), Hsp60 (middle) (mitochondrial marker), or Tubulin (bottom) (cytosol marker) antibodies. (D) HN or mutant control double-strand siRNAs were transfected into SF268 cells. After 48 h, cells were cultured without (Control) or with 0.1 uM STS. After 24 hr, cells were fractionated and analyzed by immunoblotting as above. […] After 3 h at 30° C., mitochondria were centrifuged and the resulting pellets (P) and supernatants (S) were analyzed by immunoblotting using anti-Cytochrome c (top), Hsp60 (middle), and Bax (bottom) antibodies. […]
These findings were also confirmed by subcellular fractionation, where cytosol and mitochondria-enriched heavy membrane preparations were prepared from Cos7 cells transduced with untagged Humanin or Humanin(C8P) peptides, and the relative amounts of endogenous Bax protein in these two fractions were measured by immunoblot analysis of samples normalized for cell-equivalents. […] Differences in the relative potency of Humanin at blocking Bax translocation as measured by microscopy (FIG. 7A) versus cell fractionation methods (FIG. 7C) can be explained by differences in the sensitivity of the assays, or could possibly indicate that even in cells where some Bax translocation has occurred, less of the total Bax protein associated with mitochondria. […]

BaxΔTM = biological target: T1, BaxΔTM (Homo sapiens, UniProt Q07812); assay: Co-immunoprecipitation of BaxΔTM with GFP-TM(Bax); assay type: binding; settings: lysates pre-incubated with peptide
T1 construct: a C-terminally truncated Bax protein (residues 1-169) (BaxΔTM); expressed in transfected cells; host or cells: HEK293T (lysates mixed in vitro)
T1 sequence (Q07812 1-169, stated change not applied): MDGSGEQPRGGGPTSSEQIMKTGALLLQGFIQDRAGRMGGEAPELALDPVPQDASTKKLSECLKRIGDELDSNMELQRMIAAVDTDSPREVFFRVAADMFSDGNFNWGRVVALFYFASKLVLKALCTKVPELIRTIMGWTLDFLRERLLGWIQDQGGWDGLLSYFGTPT
T1 sequence (Q07812 170-192 partner limits assumed): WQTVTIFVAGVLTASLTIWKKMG
Description: (A-B) Humanin peptide prevents STS-induced Bax translocation in vivo. Cos-7 cells were first transfected with GFP-Bax plasmids. After 24 hrs, untagged wild-type or C8P mutant Humanin peptides were introduced into cells using ChariotTM reagent, and 2 h later cells were treated with 1 μM STS. After 4 h, the percentage of cells with translocated Bax was determined (mean±SD; n=3) by confocal microscopy (A) and representative photomicrographs (B). (C) Wild-type or C8P mutant Humanin peptides were introduced into Cos7 cells using ChariotTM reagent. Cytosolic (C) and mitochondria-containing (M) fractions were isolated by differential centrifugation 23 and analyzed by immunoblotting using anti-Bax (top), Hsp60 (middle) (mitochondrial marker), or Tubulin (bottom) (cytosol marker) antibodies. (D) HN or mutant control double-strand siRNAs were transfected into SF268 cells. After 48 h, cells were cultured without (Control) or with 0.1 uM STS. After 24 hr, cells were fractionated and analyzed by immunoblotting as above. (E) Isolated mitochondria were mixed with 400 ng Bax protein, with or without preincubating Bax with 100 uM Humanin or Humanin(C8P) peptides for 10 min. After 3 h at 30° C., mitochondria were centrifuged and the resulting pellets (P) and supernatants (S) were analyzed by immunoblotting using anti-Cytochrome c (top), Hsp60 (middle), and Bax (bottom) antibodies. […]

Bax, sequence (Q07812 whole entry, species assumed, the tested form may be a part): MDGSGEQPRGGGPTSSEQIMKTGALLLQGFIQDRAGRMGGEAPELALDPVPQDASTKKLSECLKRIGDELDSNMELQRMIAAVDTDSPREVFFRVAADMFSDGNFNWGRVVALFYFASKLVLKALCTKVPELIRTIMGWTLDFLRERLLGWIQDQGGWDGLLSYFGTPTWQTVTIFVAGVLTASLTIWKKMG

Substance | Bax suppression (Bax) | Bax translocation by subcellular fractionation (endogenous Bax protein) | interaction of BaxΔTM with GFP-TM (BaxΔTM)
GFP-HN: Wild-type full-length Humanin fused to Green Fluorescent Protein | + (ability to suppress apoptosis induced by Bax over-expression by >50%) | – | –
Humanin: 24 amino acid polypeptide, cytosolic form of human Humanin (SEQ ID NO:2); used as synthetic peptide or expressed fusion | – | reduced | immunoprecipitated
